Measurements taken from the DeepSol protein solubility set.

Test: soluble on expression in E. coli; label from the status in PepcDB or PDB records

Row | Sequence | soluble on expression in E. coli
1 | MTYRVLDPNAQEGSPTEVLVRMYSHPQLRRLYADTEACYTTALADSITGEMRAAFERLRVSDPQMAIPRYVAFHVSGLQQSVVAVPDLVSVSIDKYIRPDYPVYLQFFSEYARQTMSPEYVVRDAVLGWICSERPLPRETVLTLRFQLEYWGDIYRLMKQVFPQASDEWLFGFTSDQLLWMKQNRKILLDNALKRGEMESSQPTVTDRYFKELPPDQLLPPEAPRLIGHWLGTNL | not soluble
2 | MRINFEKANSNHINIIFSWLKEPFIQEFWDNTQAHKDDILNFINGRTEPSSYADGKYVYWIASGNGHPFAMLMTIQETSEDEIDDIKLINLSKTGHSYGIDYMIGDKNYFGIGYGARTLIEFIDFFIKEVDPKADTFLIDPASDNPRAKHVYIKAGFEYVADFLMSGDVSGAGKLHHLLIKRIGLIK | not soluble
3 | MGSDKIHHHHHHMNKYIYLLAVVFGLSSCNDFLELSPTNKVIETDYYKTQEDLTEALVAAYDPLKWNAYNAYSSYELVSNIMSDDAETGGSTVSDQPQLQRVNDFTNWVTPTNLPEGLWGRSYEGVNRANIVIEKCPLLPEGTMSAELRDRYVAEAHFLRVFYYFQLWRFFGYIPYYETNLGLDDITTVPQLQPDEVYAKLIEDLDNNVIGKLPKVVPANEKGRATNGAAIAMKARIVLYQNDDTKMKEIASQLKELITDPAYQYDLIPDYKVLFDDEYEWCKESVFEVNYTEIGNSNDWAGKANQGNSDIIMLGARGLKDPNNVYVEGWGFAPVTKALNDAFLPDDPRKWTTIIDHEEFRAEGGTISSDVNQYTGYSVRKYHPRAGYSSTVGTEALNYKNNYRVIRFSDILLMASEALLRSGGSVGEAQDYYARVVKRAMGDDYKVPTVSLDNIYKERRYEFAMEGIRYWDLVRTNQAKDFIKGWDDTKKYLPIPQSEIDKSDGHLVQNPHF | not soluble
4 | GPGSMRVNDSITVQQLADEYCITSVVECDATGSVQPRAVALDSPLDVLHGGKYYIARRDVKHFAREPRVTFRGKVTVREFNATHGVIGREGETNANRGQAVAADPVGVAPSRKRPEREEDLFDSGTRTEIYAKEYEFVPFVGDLYNDGRNGMIHLKDVKKLCESVDLDEVEFRARHVQAEKILTHAKQLLLSYADGNGGRTSPEY | not soluble
5 | MGSDKIHHHHHHMLNSLSIFEQAIRALPIDRSLTRQDLFIDGFLLQQEQELSVYYSPIGEYINRSAKIVFIGITPGFEQMRLAYEEAADAFHHGATIEETSKLVKYSASFAGPMRRNLTAMLDELELHRLLNIASTATLFHTNQELLHTTSILRHPVFYRDKNYTGHQPKIDRTPLLQHYAYEHFAAELNQLPDPVILVPFGRVVESTVRTLLHQGRIKKHTVLFGFPHPSGANGHRKRQFEENKDYLMKQLNSYFNT | not soluble
6 | MPQNEHIELHRKRHGRRLDHEERQRKKLARAAHDRSQMAKTLRGHKAKLYHKKRYSEKVEMRKLLKQHEEKDQKNTVEQPDKGAVPAYLLDRQQQTSGTVLSNMIKQKRKQKAGKFNVPIPQVRAVSDAEAFKVVKTGKTNRKGWKRMVTKVTFVGESFTRKPAKFERFIRPMGLRFKKAHVTHPELQTTFHLPIVGVKKNPSSQMYTSLGVITKGTILEVNVSELGMVTQGGKVVWGKFAQVTNNPENDGCINAVLLI | not soluble
7 | MSLKLYYQQAMLLPKTKEILLRWEGVLSAGQRKASNAVVINLKGKMDMLLWAVAGSGKTEMMFEGMDWALRQGFRICVASPRVDVCLELLPRLKEAFPSMDIVCLYGDSKDNYQGEQFVIATTHQLIRFYETFQVIFIDEVDAFPYAKDPFLEYAVMKARTKEGSTIIITATPEKKWQEECVKGKRNFVKIPGRYHREGHHHHHH | soluble
8 | MINRRYELFKDVSDADWNDWRWQVRNRIETVEELKKYIPLTKEEEEGVAQCVKSLRMAITPYYLSLIDPNDPNDPVRKQAIPTALELNKAAADLEDPLHEDTDSPVPGLTHRYPDRVLLLITDMCSMYCRHCTRRRFAGQSDDSMPMERIDKAIDYIRNTPQVRDVLLSGGDALLVSDETLEYIIAKLREIPHVEIVRIGSRTPVVLPQRITPELVNMLKKYHPVWLNTHFNHPNEITEESTRACQLLADAGVPLGNQSVLLRGVNDCVHVMKELVNKLVKIRVRPYYIYQCDLSLGLEHFRTPVSKGIEIIEGLRGHTSGYCVPTFVVDAPGGGGKTPVMPNYVISQSHDKVILRNFEGVITTYSEPINYTPGCNCDVCTGKKKVHKVGVAGLLNGEGMALEPVGLERNKRHVQE | soluble
9 | MRKIIVGAFVSLDGIMQAPGGPHEDPVGGFDHGGWAAPYFDETMGQAVDEMFSKPFDLLLGRKTYDIFAAHWPYAGPDDPIGPLFDRITKYVATRNPDLRLDWQNSRTLGSDPVAMLKKLKSEEGPDLLTQGSTDFLQTLFSNDLVDEMYISYFPVVLGKGKRLFGHGAMPMAMKLLGSKVSGTGVTANKYVRSGPVVTGSFEFEQPTEAELERRRKLS | soluble
10 | METGTPLIAETIALTEKKVAMALDDIIKLAKRKTNVNKGKKPRREKNKNQNFNGAARNNTSNVRHHMNSLSAVRQGAVGKRRSRFQGIQFPVTTNIARKASTAAPLDFRGRAFNGGRMTSANQSRLIAPPVQNISVQARVNAKRHEVDQKVEHRGGKRKTLDSRFASMKEQRMTINNYGVTVQVPRLPPWVRARRFSQ | not soluble
11 | MGSDKIHHHHHHMKALVEDDLFSKIGLDDVNSGVYDGEWVKPSGKMLTVKSPIDGSEVAKISLATRADYDRLVSRAIEEFKKWRMIPAPKRGLIIREIGDELRKEKKNLGKIVTIEAGKTPSEGEGEIQEMIDISDLALGLSRQLYGLTIASERPYHRMYEQWVPLGPVAVITSFNFPASVWSWNAFIAAVDGDVVIWKPSSKAALTAVAVMKVIERVLKRNNAPNIFFLMVSSGSEGGDWITNDPRIPLVSFTGSVPVGKKISENVAKRLGKSILELGGNNGAIVSDKADIDLALRGVVFGALATAGQRCTTTRRVIVQEKIYDQFLEKLKNAYSTIKVGDPREKGVLVGPLIDEDAVKDYEHAIDLAIKQGGKLIFGGKRITIKGLEGGHYVMPTIIEAKPDMPIVKEETFASILYVMKYRTIEEAIEIHNSVPQGLSSSIFTTDLREEEAFLSPYGSDCGLANVNTSTAGAEIGGAFGGEKDTGGGRESGSDAWKYYMRRQTVTKNWGQTLPLAQDVVFEF | not soluble
12 | MADPTFAEHVATTNSRLASLRANLIDVSTFPEACSELTKWCQDQRAFTAHFEDNLMMALEAAMDYGTRENYDYMLTHGLVGACFTHRKHLSKPAATRIGRWYEQMRRLKKNGGKRKRAPPKPKDPALQASSQPTGTLPVLTSPSCPQNGQQLPTENNNFMFSPNSSDGLVLVIFSSSINFSLKIRVNAKKRKF | not soluble
13 | MSEVIQDRRSAVDTARAGHMLERARWAAAAYGEYDAATVEGIVAAVAEAAHAHAERFAADAVAETGMGVVADKVRKNRACSRGIVEYYRGHDYISPRVDPDRKIVELPRPAGVVLALTPTTNPVATVYFKTILALMTRNAVVVAPHPRAARCSAEAARVLAEAAVAAGAPDGVVQVIDEPSIPLVQALMADERTDVIVATGGTAVVRAAYSSGNPALGVGPGNVPVLVDASADVAAAAQRIVDSKAFDNSVLCTNESVLIAEDAVADKLRAALTRAGAHILDEDGARRLRAYMFADGHLNTDVVGRDAAWIAGQAGLRVTPKTRVLIAPFDHVIAEEMLAHEKLSPVLGMTTVADAARGIRAARAVVRIGGAGHSAAIHSENPAVITDFAAQVPVLRVSVNVGNSTGSAGLDTNLAPSMTIGTGFVGRSSIGENLQPHNLVNWTRIAYNSDPGVVMGNFTGIDPWRAPAGPVPAYPRASNDRDGAVIQAAPQRSYQSPSRTTDVNLDALRAELRALVVEELAQLIKR | not soluble
14 | MAEKKKDEKETKETENFILKLSAETVLFSNAKLGDEVTTTVLKMTNPTTDKCAFKVKCTSNDLFKIKTPVGYIKPDETIDIPLCHNPGKAIPENNKQYFAFYYIKTKEDGPARDAWKNHKPDGMKRIYISFKKGDEKGDEKKDEKKEEKKEEKKEEKKEDKKDDKKEAKKEEKKEEKKEEKKEEKKEEKKEEKKEEKNDENKEEKKEEKKDEKKEEKKVEEAKK | soluble
15 | GSMPRVVPDQRSKFENEEFFRKLSRECEIKYTGFRDRPHEERQTRFQNACRDGRSEIAFVATGTNLSLQFFPASWQGEQRQTPSREYVDLEREAGKVYLKAPMILNGVCVIWKGWIDLHRLDGMGCLEFDEERAQQEDALAQQ | soluble
16 | MRLLPVTLLLGAVIFVSTKSTCRTRTKPPSTVPMNEVTEAVTTKKASNVTVKPTTCEASWTRVERSIGGWCLKVYNGFVHQDQASQACIRIGAELSGSESSAERAVIARLGKERMLAASDYKFGTIRVGIARPTTTRAWALTDGNNDGGQQGIQWSKGEPQLGPTSGYSHNCALMWIWASTGTSPYEHGKYFHKFVHLLGRTCTEDLFVESVLLDF | not soluble
17 | MSSYANHQALAGLTLGKSTDYRDTYDASLLQGVPRSLNRDPLGLKADNLPFHGTDIWTLYELSWLNAKGLPQVAVGHVELDYTSVNLIESKSFKLYLNSFNQTRFNNWDEVRQTLERDLSTCAQGKISVALYRLDELEGQPIGHFNGTCIDDQDITIDNYEFTTDYLENATCGEKVVEETLVSHLLKSNCLITHQPDWGSLQIQYRGRQIDREKLLRYLVSFRHHNEFHEQCVERIFNDLLRFCQPEKLSVYARYTRRGGLDINPWRSNSDFVPSTTRLVRQ | soluble
18 | MGHHHHHHSHMGFYLGITALKSIGNNKNNNIDNENNHQAKILTFPVSFTCRTFLPARGDILQGTVKKVLWNGAFIRSGPLRYAYLSLLKMPHYHYVHSPLSEDEKPHFQKDDLSKIAVGVVVRFQVLAVRFKERPHKRRNDYYVLATLEGNGSFGP | soluble
19 | MGSDKIHHHHHHMELVYKITYHRIQAHYLPKLVQAVQFVSEENLWKQGESVNSIGGIVLHICEHMQRNTSRYKNPNIVFEKGIEEYFPTKRQHTEVLLQYVEKVFDEWGKAYIQAWEEKRHIELHSLLHLVEHTSYHLGQIVDRTKLIKGQQFNFCQNGINEKNLRTRVETSKF | not soluble
20 | MSLDHIIIRHAHAAVITAPLNTPFRIATGQHDQLENVFFQLKAHDGTCGYGEAAVASHITGETVEQTLANLQKAATQLAGRNGNDPVELIEEFRPLFVGNHAALAAFEMALFDLASRSRGIPFGALFSAAPGCAARPRFQSDITIVIGSLEEAETAARHYAGQGFTAFKIKVGKDHELDLQRVLAVKRIAPDSCLVLDANMGFDATGMRRFLQQLEQHGIRPDLLEQPVPKGDWDGLAAITREFAGSGMLICADESVGSLAAAELAVALKAVNAINIKFMKSGITESVRIAELACRNNIKLMLGAMMESSLAITAAAHFAATLGCFEVIDLDTTFFINGPLSRSPYLDQSGRFDLGAPGPGIGVALKLLEGHHHHHH | soluble
21 | MDITPALTEMELDHKPTCETVPGLPQKKHYRQRAHSNPHSDHDIEYPLTPNHMDWTKYYGDYTKGRQVDFADIGCGYGGLLMRLSPKYPDNLMIGMEIRVKVSDYVNEKIQALRKHHAEAGHYRNVAVLRSNAMKYMPNYFHKGQLSKMFFLFPDPHFKNKKHKWRIITPTLLSEYAYVLREGGIIYTITDVKDLHEWMVKHLSEHPLFERLTEEEMKKDPIVEMLFESTEEGQKVTRNDGGKWPAIFRRLPNPAL | not soluble
